Experimental data from article PMC12846830 (Proceedings of the National Academy of Sciences of the …, 2026).

Target: the molecule itself
Test: single-molecule photobleaching step analysis

B1: EmrE, a multidrug transporter from Escherichia coli, with a tetracysteine tag (TC-Tag) (natural protein)
chain: MNPYIYLGGAILAEVIGTTLMKFSEGFTRLWPSVGTIICYCASFWLLAQTLAYIPTGIAYAIWSGVGIVLISLLSWGFFGQRLDLPAIIGMMLICAGVLIINLLSRSTPH
modifications: FlAsH dye covalently bound to the tetracysteine tag
stoichiometry N: 2
